B1: P(MPC/aptaDNA)/P(MPC/coDNA) nanogel (mixed)
DNA 1: TTTTTTTGCTCCGGTTGGTGTGGTTGG
DNA 2: TTTTTTTTTTTTCCAACCGGAGC
modifications: 5'-acrydite of both strands copolymerized with MPC (38/1 and 45/1)

Experiments:
[1] = target: T1, thrombin (UniProt P00734;P00734 328-363;364-622); assay: EMSA (agarose gel, SYBR Gold); aptamer polymer/thrombin 1/10; Nanogels generated in PBS; buffer, pH and temperature of thrombin binding assays not in the material (section 2.5 text missing)
[2] = target: T1, thrombin; assay: EtBr fluorescence decrease (duplex displacement); EtBr-loaded nanogel; concentration dependent; Nanogels generated in PBS; buffer, pH and temperature of thrombin binding assays not in the material (section 2.5 text missing)
[3] = target: albumin (BSA) (bovine, UniProt P02769 25-607); assay: EtBr fluorescence (duplex displacement); EtBr-loaded nanogel; Nanogels generated in PBS; buffer, pH and temperature of thrombin binding assays not in the material (section 2.5 text missing); conditions: label: EtBr intercalated; 11 bp GCTCCGGTTGG/CCAACCGGAGC; 5' overhangs 7 nt T (aptaDNA) and 12 nt T (coDNA); 3' overhang 9 nt TGTGGTTGG (aptaDNA)
albumin (BSA), sequence (P02769 25-607): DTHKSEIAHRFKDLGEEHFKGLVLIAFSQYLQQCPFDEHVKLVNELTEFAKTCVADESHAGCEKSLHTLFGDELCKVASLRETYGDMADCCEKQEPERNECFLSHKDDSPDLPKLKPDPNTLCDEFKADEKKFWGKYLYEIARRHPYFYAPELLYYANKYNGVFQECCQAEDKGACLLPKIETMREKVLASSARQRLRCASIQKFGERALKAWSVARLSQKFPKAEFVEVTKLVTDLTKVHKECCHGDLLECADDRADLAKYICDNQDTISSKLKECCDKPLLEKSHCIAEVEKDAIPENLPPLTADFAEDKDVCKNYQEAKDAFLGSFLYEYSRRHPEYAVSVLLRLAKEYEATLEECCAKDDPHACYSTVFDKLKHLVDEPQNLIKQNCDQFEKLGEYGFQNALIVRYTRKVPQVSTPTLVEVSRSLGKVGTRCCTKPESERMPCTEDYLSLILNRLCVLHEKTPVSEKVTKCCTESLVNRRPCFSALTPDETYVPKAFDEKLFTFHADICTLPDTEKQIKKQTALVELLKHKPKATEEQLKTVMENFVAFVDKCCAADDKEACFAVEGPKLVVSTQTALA

| Binder | binding result [1] | binding result [2] | binding result [3] |
| --- | --- | --- | --- |
| TTTTTTTGCTCCGGTTGGTGTGGTTGG (structured_DNA, 5'-acrydite copolymerized with MPC (MPC/oligo 38/1)) [P(MPC/aptaDNA)] | binds |  |  |
| B1 |  | binds | no binding |
